Assay results: paper PMC4735842

Biological target: Cereolysin O (CLO) of Bacillus cereus ATCC 11778 (BC1) (Bacillus cereus ATCC 11778 (endogenous in the culture))
Test: SDS-PAGE with Western blot; retentates of BC1 microaerobic culture supernatants (grown with or without 1 g/L BSA, 3 kDa cut-off filter); boiled 5 min in Laemmli buffer with 50 mM DTT; 4-20% Tris-Glycine gel; blot with rabbit anti-streptolysin O antibody

Cereolysin O (CLO) of Bacillus cereus ATCC 11778 (BC1) (natural protein)
stoichiometry N: 2
